The subject of series [1] is HeLa Kyoto. Description: solubility in G1/S (NP-40 vs SDS abundance) (log2 ratio); higher = more soluble. The note with it: cell cycle stage: G1/S.
For series [2], the system named is HeLa Kyoto. Briefly: melting temperature (median over replicates), in situ; higher = more thermally stable.
Series [3] concerns HeLa Kyoto. Description: solubility change mitosis vs G1/S (difference of NP-40 vs SDS log2 ratios) (log2 ratio difference); higher = more soluble in mitosis.
Series [4] concerns HeLa Kyoto. Description: thermal stability score vs G1/S (z-score of summed log2 fold changes over temperatures); higher = more thermally stable than in G1/S.
Setting [5] is: cell cycle stage: early G1 (4.5 h after nocodazole release).
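For melting temperature (median over replicates), in situ in this document: HeLa Kyoto cells synchronized by double thymidine or nocodazole block, proteins quantified by TMT10plex mass spectrometry, three independent biological replicates.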
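For solubility change mitosis vs G1/S (difference of NP-40 vs SDS log2 ratios) in this document: synchronized HeLa Kyoto cells (double thymidine block for G1/S, nocodazole release for mitosis), protein amounts in NP-40 versus SDS lysates quantified by mass spectrometry, three biological replicates.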
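For solubility in G1/S (NP-40 vs SDS abundance) in this document: HeLa Kyoto cells arrested at G1/S by double thymidine block, proteins quantified by TMT10plex mass spectrometry in mild NP-40 versus SDS extracts, three biological replicates.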
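For thermal stability score vs G1/S (z-score of summed log2 fold changes over temperatures) in this document: synchronized HeLa Kyoto cells, proteins quantified by TMT10plex mass spectrometry, three biological replicates, mitosis taken 0.5 h after nocodazole release, G1/S directly after double thymidine block.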

Turning to “MPEDQAGAAMEEASPYSLLDICLNFLTTHLEKFCSARQDGTLCLQEPGVFPQEVADRLLRTMAFHGLLNDGTVGIFRGNQMRLKRACIRKAKISAVAFRKAFCHHKLVELDATGVNADITITDIISGLGSNKWIQQNLQCLVLNSLTLSLEDPYERCFSRLSGLRALSITNVLFYNEDLAEVASLPRLESLDISNTSITDITALLACKDRLKSLTMHHLKCLKMTTTQILDVVRELKHLNHLDISDDKQFTSDIALRLLEQKDILPNLVSLDVSGRKHVTDKAVEAFIQQRPSMQFVGLLATDAGYSEFLTGEGHLKVSGEANETQIAEALKRYSERAFFVREALFHLFSLTHVMEKTKPEILKLVVTGMRNHPMNLPVQLAASACVFNLTKQDLAAGMPVRLLADVTHLLLKAMEHFPNHQQLQKNCLLSLCSDRILQDVPFNRFEAAKLVMQWLCNHEDQNMQRMAVAIISILAAKLSTEQTAQLGTELFIVRQLLQIVKQKTNQNSVDTTLKFTLSALWNLTDESPTTCRHFIENQGLELFMRVLESFPTESSIQQKVLGLLNNIAEVQELHSELMWKDFIDHISSLLHSVEVEVSYFAAGIIAHLISRGEQAWTLSRSQRNSLLDDLHSAILKWPTPECEMVAYRSFNPFFPLLGCFTTPGVQLWAVWAMQHVCSKNPSRYCSMLIEEGGLQHLYNIKDHEHTDPHVQQIAVAILDSLEKHIVRHGRPPPCKKQPQARLN [ZYG11B]”, the “solubility in G1/S (log2)” value with HeLa Kyoto [1] is -0.136. In addition, the melting temperature in the series with HeLa Kyoto [2] (cell cycle stage: G1/S) was 52.4 °C; in the series with HeLa Kyoto [2] (cell cycle stage: mitosis), 52.3 °C. Besides, the “solubility change mitosis (log2)” value in the series on HeLa Kyoto [3] is -0.182. The thermal stability score turned out to be 2.24 in the series on HeLa Kyoto [4] (setting [5]) and 0.857 with HeLa Kyoto [4] (cell cycle stage: mitosis).

Regarding “MPEEGSGCSVRRRPYGCVLRAALVPLVAGLVICLVVCIQRFAQAQQQLPLESLGWDVAELQLNHTGPQQDPRLYWQGGPALGRSFLHGPELDKGQLRIHRDGIYMVHIQVTLAICSSTTASRHHPTTLAVGICSPASRSISLLRLSFHQGCTIASQRLTPLARGDTLCTNLTGTLLPSRNTDETFFGVQWVRP [CD70]”, the “solubility in G1/S (log2)” value in the series on HeLa Kyoto [1] was found to be 0.258. Moreover, the figures for the melting temperature in the series with HeLa Kyoto [2] (cell cycle stage: G1/S) and in the series on HeLa Kyoto [2] (cell cycle stage: mitosis) were 54.9 °C and 57.1 °C, respectively. Further, the “solubility change mitosis (log2)” value in the series on HeLa Kyoto [3] is -0.0934. Further, the thermal stability score in the series on HeLa Kyoto [4] (setting [5]) was -2.35; with HeLa Kyoto [4] (cell cycle stage: mitosis), -1.58.

Regarding “MPFAEDKTYKYICRNFSNFCNVDVVEILPYLPCLTARDQDRLRATCTLSGNRDTLWHLFNTLQRRPGWVEYFIAALRGCELVDLADEVASVYQSYQPRTSDRPPDPLEPPSLPAERPGPPTPAAAHSIPYNSCREKEPSYPMPVQETQAPESPGENSEQALQTLSPRAIPRNPDGGPLESSSDLAALSPLTSSGHQEQDTELGSTHTAGATSSLTPSRGPVSPSVSFQPLARSTPRASRLPGPTGSVVSTGTSFSSSSPGLASAGAAEGKQGAESDQAEPIICSSGAEAPANSLPSKVPTTLMPVNTVALKVPANPASVSTVPSKLPTSSKPPGAVPSNALTNPAPSKLPINSTRAGMVPSKVPTSMVLTKVSASTVPTDGSSRNEETPAAPTPAGATGGSSAWLDSSSENRGLGSELSKPGVLASQVDSPFSGCFEDLAISASTSLGMGPCHGPEENEYKSEGTFGIHVAENPSIQLLEGNPGPPADPDGGPRPQADRKFQEREVPCHRPSPGALWLQVAVTGVLVVTLLVVLYRRRLH [MAVS]”, in the series on HeLa Kyoto [1], the “solubility in G1/S (log2)” value turned out to be 0.462. In addition, the melting temperature was 54.2 °C in the series with HeLa Kyoto [2] (cell cycle stage: G1/S) and 54.4 °C with HeLa Kyoto [2] (cell cycle stage: mitosis). Further, the “solubility change mitosis (log2)” value in the series with HeLa Kyoto [3] was -0.239. In addition, the results for the thermal stability score in the series on HeLa Kyoto [4] (setting [5]) and in the series with HeLa Kyoto [4] (cell cycle stage: mitosis) were -0.897 and -0.611, respectively.

Turning to “MPGPAAGSRARVYAEVNSLRSREYWDYEAHVPSWGNQDDYQLVRKLGRGKYSEVFEAINITNNERVVVKILKPVKKKKIKREVKILENLRGGTNIIKLIDTVKDPVSKTPALVFEYINNTDFKQLYQILTDFDIRFYMYELLKALDYCHSKGIMHRDVKPHNVMIDHQQKKLRLIDWGLAEFYHPAQEYNVRVASRYFKGPELLVDYQMYDYSLDMWSLGCMLASMIFRREPFFHGQDNYDQLVRIAKVLGTEELYGYLKKYHIDLDPHFNDILGQHSRKRWENFIHSENRHLVSPEALDLLDKLLRYDHQQRLTAKEAMEHPYFYPVVKEQSQPCADNAVLSSGLTAAR [CSNK2A2]”, the “solubility in G1/S (log2)” value with HeLa Kyoto [1] is -0.244. Further, the melting temperature turned out to be 50.7 °C with HeLa Kyoto [2] (cell cycle stage: G1/S) and 50.3 °C in the series on HeLa Kyoto [2] (cell cycle stage: mitosis). Moreover, the “solubility change mitosis (log2)” value in the series with HeLa Kyoto [3] worked out at 0.0267. Also, the thermal stability score in the series with HeLa Kyoto [4] (setting [5]) stood at 1.94; in the series with HeLa Kyoto [4] (cell cycle stage: mitosis), 2.34.

Consider “MPGSLPLNAEACWPKDVGIVALEIYFPSQYVDQAELEKYDGVDAGKYTIGLGQAKMGFCTDREDINSLCMTVVQNLMERNNLSYDCIGRLEVGTETIIDKSKSVKTNLMQLFEESGNTDIEGIDTTNACYGGTAAVFNAVNWIESSSWDGRYALVVAGDIAVYATGNARPTGGVGAVALLIGPNAPLIFERGLRGTHMQHAYDFYKPDMLSEYPIVDGKLSIQCYLSALDRCYSVYCKKIHAQWQKEGNDKDFTLNDFGFMIFHSPYCKLVQKSLARMLLNDFLNDQNRDKNSIYSGLEAFGDVKLEDTYFDRDVEKAFMKASSELFSQKTKASLLVSNQNGNMYTSSVYGSLASVLAQYSPQQLAGKRIGVFSYGSGLAATLYSLKVTQDATPGSALDKITASLCDLKSRLDSRTGVAPDVFAENMKLREDTHHLVNYIPQGSIDSLFEGTWYLVRVDEKHRRTYARRPTPNDDTLDEGVGLVHSNIATEHIPSPAKKVPRLPATAAEPEAAVISNGEH [HMGCS1]”, for which the “solubility in G1/S (log2)” value in the series on HeLa Kyoto [1] worked out at 0.0526. The values for the melting temperature with HeLa Kyoto [2] (cell cycle stage: G1/S) and in the series on HeLa Kyoto [2] (cell cycle stage: mitosis) were 54 °C and 55.2 °C, respectively. In addition, in the series with HeLa Kyoto [3], the “solubility change mitosis (log2)” value is -0.0813. The thermal stability score was -0.19 with HeLa Kyoto [4] (setting [5]) and 3.42 with HeLa Kyoto [4] (cell cycle stage: mitosis).

Turning to “MPGVKLTTQAYCKMVLHGAKYPHCAVNGLLVAEKQKPRKEHLPLGGPGAHHTLFVDCIPLFHGTLALAPMLEVALTLIDSWCKDHSYVIAGYYQANERVKDASPNQVAEKVASRIAEGFSDTALIMVDNTKFTMDCVAPTIHVYEHHENRWRCRDPHHDYCEDWPEAQRISASLLDSRSYETLVDFDNHLDDIRNDWTNPEINKAVLHLC [EMC8]”, the “solubility in G1/S (log2)” value in the series with HeLa Kyoto [1] was 0.269. Further, the figures for the melting temperature in the series with HeLa Kyoto [2] (cell cycle stage: G1/S) and in the series with HeLa Kyoto [2] (cell cycle stage: mitosis) were 53.1 °C and 53.3 °C, respectively. Further, in the series with HeLa Kyoto [3], the “solubility change mitosis (log2)” value is -0.272. Further, the thermal stability score in the series with HeLa Kyoto [4] (setting [5]) was -1.83; with HeLa Kyoto [4] (cell cycle stage: mitosis), -2.67.

Consider “MPHRKKKPFIEKKKAVSFHLVHRSQRDPLAADESAPQRVLLPTQKIDNEERRAEQRKYGVFFDDDYDYLQHLKEPSGPSELIPSSTFSAHNRREEKEETLVIPSTGIKLPSSVFASEFEEDVGLLNKAAPVSGPRLDFDPDIVAALDDDFDFDDPDNLLEDDFILQANKATGEEEGMDIQKSENEDDSEWEDVDDEKGDSNDDYDSAGLLSDEDCMSVPGKTHRAIADHLFWSEETKSRFTEYSMTSSVMRRNEQLTLHDERFEKFYEQYDDDEIGALDNAELEGSIQVDSNRLQEVLNDYYKEKAENCVKLNTLEPLEDQDLPMNELDESEEEEMITVVLEEAKEKWDCESICSTYSNLYNHPQLIKYQPKPKQIRISSKTGIPLNVLPKKGLTAKQTERIQMINGSDLPKVSTQPRSKNESKEDKRARKQAIKEERKERRVEKKANKLAFKLEKRRQEKELLNLKKNVEGLKL [LTV1]”, for which, in the series with HeLa Kyoto [1], the “solubility in G1/S (log2)” value was -0.271. The melting temperature with HeLa Kyoto [2] (cell cycle stage: G1/S) turned out to be 50.1 °C; in the series with HeLa Kyoto [2] (cell cycle stage: mitosis) it was 48.8 °C. Besides, the “solubility change mitosis (log2)” value in the series with HeLa Kyoto [3] was -0.0961. For the same sequence, the thermal stability score in the series on HeLa Kyoto [4] (setting [5]) is -2.27; in the series with HeLa Kyoto [4] (cell cycle stage: mitosis), -0.672.

Take “MPHSYPALSAEQKKELSDIALRIVAPGKGILAADESVGSMAKRLSQIGVENTEENRRLYRQVLFSADDRVKKCIGGVIFFHETLYQKDDNGVPFVRTIQDKGIVVGIKVDKGVVPLAGTDGETTTQGLDGLSERCAQYKKDGADFAKWRCVLKISERTPSALAILENANVLARYASICQQNGIVPIVEPEILPDGDHDLKRCQYVTEKVLAAVYKALSDHHVYLEGTLLKPNMVTPGHACPIKYTPEEIAMATVTALRRTVPPAVPGVTFLSGGQSEEEASFNLNAINRCPLPRPWALTFSYGRALQASALNAWRGQRDNAGAATEEFIKRAEVNGLAAQGKYEGSGEDGGAAAQSLYIANHAY [ALDOC]”: in the series with HeLa Kyoto [1], the “solubility in G1/S (log2)” value was 0.202. Moreover, the melting temperature was 56.9 °C in the series with HeLa Kyoto [2] (cell cycle stage: G1/S) and 57 °C with HeLa Kyoto [2] (cell cycle stage: mitosis). Further, in the series with HeLa Kyoto [3], the “solubility change mitosis (log2)” value was -0.0816. Further, the thermal stability score with HeLa Kyoto [4] (setting [5]) was -1.31; with HeLa Kyoto [4] (cell cycle stage: mitosis) it was -2.38.

In the case of “MPKKAKPTGSGKEEGPAPCKQMKLEAAGGPSALNFDSPSSLFESLISPIKTETFFKEFWEQKPLLIQRDDPALATYYGSLFKLTDLKSLCSRGMYYGRDVNVCRCVNGKKKVLNKDGKAHFLQLRKDFDQKRATIQFHQPQRFKDELWRIQEKLECYFGSLVGSNVYITPAGSQGLPPHYDDVEVFILQLEGEKHWRLYHPTVPLAREYSVEAEERIGRPVHEFMLKPGDLLYFPRGTIHQADTPAGLAHSTHVTISTYQNNSWGDFLLDTISGLVFDTAKEDVELRTGIPRQLLLQVESTTVATRRLSGFLRTLADRLEGTKELLSSDMKKDFIMHRLPPYSAGDGAELSTPGGKLPRLDSVVRLQFKDHIVLTVLPDQDQSDEAQEKMVYIYHSLKNSRETHMMGNEEETEFHGLRFPLSHLDALKQIWNSPAISVKDLKLTTDEEKESLVLSLWTECLIQVV [MINA]”, the “solubility in G1/S (log2)” value with HeLa Kyoto [1] is -0.11. Further, the melting temperature with HeLa Kyoto [2] (cell cycle stage: G1/S) was 53.4 °C; with HeLa Kyoto [2] (cell cycle stage: mitosis), 51.4 °C. Also, the “solubility change mitosis (log2)” value in the series on HeLa Kyoto [3] was -0.0273. For the same sequence, the thermal stability score with HeLa Kyoto [4] (setting [5]) was 3.05; in the series on HeLa Kyoto [4] (cell cycle stage: mitosis), 0.952.

For “MPKKKTGARKKAENRREREKQLRASRSTIDLAKHPCNASMECDKCQRRQKNRAFCYFCNSVQKLPICAQCGKTKCMMKSSDCVIKHAGVYSTGLAMVGAICDFCEAWVCHGRKCLSTHACACPLTDAECVECERGVWDHGGRIFSCSFCHNFLCEDDQFEHQASCQVLEAETFKCVSCNRLGQHSCLRCKACFCDDHTRSKVFKQEKGKQPPCPKCGHETQETKDLSMSTRSLKFGRQTGGEEGDGASGYDAYWKNLSSDKYGDTSYHDEEEDEYEAEDDEEEEDEGRKDSDTESSDLFTNLNLGRTYASGYAHYEEQEN [ZNF330]”, in the series on HeLa Kyoto [1], the “solubility in G1/S (log2)” value is -0.262. The melting temperature with HeLa Kyoto [2] (cell cycle stage: G1/S) was found to be 50.4 °C; with HeLa Kyoto [2] (cell cycle stage: mitosis) it was 50.9 °C. The “solubility change mitosis (log2)” value in the series with HeLa Kyoto [3] was -0.0758. Besides, the values for the thermal stability score with HeLa Kyoto [4] (setting [5]) and with HeLa Kyoto [4] (cell cycle stage: mitosis) were 3.84 and 0.774, respectively.
